{"source": "IntAct's records for PubMed 22036564", "biological_target": "efna1_mouse Efna1 (UniProt P52793)", "sequence (P52793 whole entry)": "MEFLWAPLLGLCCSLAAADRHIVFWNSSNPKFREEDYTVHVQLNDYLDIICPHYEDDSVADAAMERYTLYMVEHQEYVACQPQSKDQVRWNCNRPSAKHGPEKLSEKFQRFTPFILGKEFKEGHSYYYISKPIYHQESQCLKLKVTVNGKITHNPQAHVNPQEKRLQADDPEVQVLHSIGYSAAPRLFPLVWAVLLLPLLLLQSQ"}
{"substance": "Ephrin type-A receptor 7 (Homo sapiens), Q15375 T105Q", "values": [{"measurement": "effect of a mutation on the interaction", "result": "decreasing interaction"}]}
